# Experimental data from publication PMC5228053.
# Target: pyruvate kinase type M2 (PKM2) (human (endogenous in A549)) (UniProt P14618)
# Experiment: cross-linking; A549 cells in PBS (2 mg/ml protein), EDC 10 mM / sulfo-NHS 5 mM, room temperature, quenched with 20 mM DTT, then western blot for PKM2; cells treated with pTyr peptide, FBP or serine
# Chain of pyruvate kinase type M2 (PKM2), P14618 1-531 (enzyme; other documents disagree on this pair) (P14618 whole entry): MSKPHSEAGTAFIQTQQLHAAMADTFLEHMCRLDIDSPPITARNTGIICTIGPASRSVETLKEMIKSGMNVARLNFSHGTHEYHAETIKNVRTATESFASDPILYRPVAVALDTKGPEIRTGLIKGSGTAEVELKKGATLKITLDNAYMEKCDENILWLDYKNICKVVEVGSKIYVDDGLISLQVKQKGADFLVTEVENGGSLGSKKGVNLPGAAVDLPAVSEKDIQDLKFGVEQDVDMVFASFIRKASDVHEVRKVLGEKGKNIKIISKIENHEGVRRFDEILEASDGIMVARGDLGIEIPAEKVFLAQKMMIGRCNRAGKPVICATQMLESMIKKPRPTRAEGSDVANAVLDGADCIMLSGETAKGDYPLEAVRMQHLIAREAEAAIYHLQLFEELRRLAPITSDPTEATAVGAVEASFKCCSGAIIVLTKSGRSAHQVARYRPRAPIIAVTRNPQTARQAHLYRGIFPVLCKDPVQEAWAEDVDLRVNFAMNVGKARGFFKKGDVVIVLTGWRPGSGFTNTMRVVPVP
substance,measurement,value
"pyruvate kinase type M2 (PKM2), P14618 1-531 (enzyme; other documents disagree on this pair)",stoichiometry N,2
